This passage reports Kd results from PMC7810915 (Computational and Structural Biotechnology Journal, 2019).

The series deals with the molecule itself. Briefly: NMR relaxation.

B1: Smad5 MH1 domain (wild type) (domain or fragment, Homo sapiens)
chain: GPSFTSPAVKRLLGWKQGDEEEKWAEKAVDALVKKLKKKKGAMEELEKALSSPGQPSKCVTIPRSLDGRLQVSHRKGLPHVIYCRVWRWPDLQSHHELKPLDICEFPFGSKQKEVCINPYHYKRVESPVLPP
Broadly, the Kd is a measure of binding affinity in units of concentration. In the case of B1, binding was put at a Kd of 8.3 ± 1.5 mM.
